Measured values published in the supplement of paper PMC11246515.
± gives the standard deviation of the averaged measurements.

Experiment: total protein half-life in vivo (active degradation + dilution); higher = more stable protein
[1] = E. coli NCM3722 delta-clpP delta-lon delta-hslV, growth: N-lim chemostat, doubling time 6 h
[2] = E. coli NCM3722 delta-clpP, growth: N-lim chemostat, doubling time 6 h
[3] = E. coli NCM3722 delta-hslV, growth: N-lim chemostat, doubling time 6 h
[4] = E. coli NCM3722 delta-lon, growth: N-lim chemostat, doubling time 6 h
[5] = E. coli NCM3722 delta-smpB, growth: N-lim chemostat, doubling time 6 h
[6] = wild type E. coli NCM3722, growth: C-lim chemostat, doubling time 3 h
[7] = wild type E. coli NCM3722, growth: C-lim chemostat, doubling time 6 h
[8] = wild type E. coli NCM3722, growth: C-lim chemostat, doubling time 12 h
[9] = wild type E. coli NCM3722, growth: N-lim chemostat, doubling time 6 h
[10] = wild type E. coli NCM3722, growth: N-lim chemostat, doubling time 12 h
[11] = wild type E. coli NCM3722, growth: P-lim chemostat, doubling time 6 h
[12] = wild type E. coli NCM3722, growth: P-lim chemostat, doubling time 12 h

## MNSLTTHYRRSQLIALPVPGGKAKVEYCYAVNVPGDREIVTHSFAEWAVGDFNRQKETVLCDKLTAGSKITTECPSESFVGSRKHNGLSTSAKVMSMNASARSNSFVVNSGK
[1]
  total protein half-life in vivo: 1.84 h

## MNTALAQQIANEGGVEAWMIAQQHKSLLRFLTCGSVDDGKSTLIGRLLHDTRQIYEDQLSSLHNDSKRHGTQGEKLDLALLVDGLQAEREQGITIDVAYRYFSTEKRKFIIADTPGHEQYTRNMATGASTCELAILLIDARKGVLDQTRRHSFISTLLGIKHLVVAINKMDLVDYSEETFTRIREDYLTFAGQLPGNLDIRFVPLSALEGDNVASQSESMPWYSGPTLLEVLETVEIQRVVDAQPMRFPVQYVNRPNLDFRGYAGTLASGRVEVGQRVKVLPSGVESNVARIVTFDGDREEAFAGEAITLVLTDEIDISRGDLLLAADEALPAVQSASVDVVWMAEQPLSPGQSYDIKIAGKKTRARVDGIRYQVDINNLTQREVENLPLNGIGLVDLTFDEPLVLDRYQQNPVTGGLIFIDRLSNVTVGAGMVHEPVSQATAAPSEFSAFELELNALVRRHFPHWGARDLLGDK
[1]
  total protein half-life in vivo: 4.99 ± 0.27 h
[2]
  total protein half-life in vivo: 4.67 ± 0.42 h
[3]
  total protein half-life in vivo: 1.18 ± 0.2 h
[4]
  total protein half-life in vivo: 1.23 ± 0.018 h
[5]
  total protein half-life in vivo: 1.13 ± 0.045 h
[6]
  total protein half-life in vivo: 1.58 ± 0.051 h
[7]
  total protein half-life in vivo: 1.61 ± 0.17 h
[8]
  total protein half-life in vivo: 2.08 ± 0.23 h
[9]
  total protein half-life in vivo: 1.29 ± 0.057 h
[10]
  total protein half-life in vivo: 1.39 ± 0.11 h
[11]
  total protein half-life in vivo: 1.67 ± 0.47 h
[12]
  total protein half-life in vivo: 2.32 ± 0.57 h

## MNTDTFMCSSDEKQTRSPLSLYSEYQRMEIEFRAPHIMPTSHWHGQVEVNVPFDGDVEYLINNEKVNINQGHITLFWACTPHQLTDTGTCQSMAIFNLPMHLFLSWPLDKDLINHVTHGMVIKSLATQQLSPFEVRRWQQELNSPNEQIRQLAIDEIGLMLKRFSLSGWEPILVNKTSRTHKNSVSRHAQFYVSQMLGFIAENYDQALTINDVAEHVKLNANYAMGIFQRVMQLTMKQYITAMRINHVRALLSDTDKSILDIALTAGFRSSSRFYSTFGKYVGMSPQQYRKLSQQRRQTFPG [P0ACH8]
[2]
  total protein half-life in vivo: 2.09 ± 0.21 h
[3]
  total protein half-life in vivo: 2.5 h
[5]
  total protein half-life in vivo: 1.89 h
[6]
  total protein half-life in vivo: 2.14 ± 0.34 h
[7]
  total protein half-life in vivo: 3.43 ± 0.17 h
[8]
  total protein half-life in vivo: 4.03 ± 0.28 h
[12]
  total protein half-life in vivo: 4.99 ± 1.6 h

## MNTFSQVWVFSDTPSRLPELMNGAQALANQINTFVLNDADGAQAIQLGANHVWKLNGKPDDRMIEDYAGVMADTIRQHGADGLVLLPNTRRGKLLAAKLGYRLKAAVSNDASTVSVQDGKATVKHMVYGGLAIGEERIATPYAVLTISSGTFDAAQPDASRTGETHTVEWQAPAVAITRTATQARQSNSVDLDKARLVVSVGRGIGSKENIALAEQLCKAIGAELACSRPVAENEKWMEHERYVGISNLMLKPELYLAVGISGQIQHMVGANASQTIFAINKDKNAPIFQYADYGIVGDAVKILPALTAALAR
[6]
  total protein half-life in vivo: 2.87 ± 0.035 h
[7]
  total protein half-life in vivo: 5.9 h
[8]
  total protein half-life in vivo: 8.89 ± 0.4 h

## MNTLLLLAALSSQITFNTTQQGDVYTIIPEVTLTQSCLCRVQILSLREGSSGQSQTKQEKTLSLPANQPIALTKLSLNISPDDRVKIVVTVSDGQSLHLSQQWPPSSEKS
[1]
  total protein half-life in vivo: 4.26 ± 0.3 h
[2]
  total protein half-life in vivo: 3.33 h
[5]
  total protein half-life in vivo: 3.31 ± 0.35 h
[6]
  total protein half-life in vivo: 2.3 h
[8]
  total protein half-life in vivo: 5.97 ± 1.4 h
[9]
  total protein half-life in vivo: 4.1 h
[10]
  total protein half-life in vivo: 6.87 ± 0.16 h
[11]
  total protein half-life in vivo: 4.19 h
[12]
  total protein half-life in vivo: 7.71 ± 0.17 h

## MNTLPEHSCDVLIIGSGAAGLSLALRLADQHQVIVLSKGPVTEGSTFYAQGGIAAVFDETDSIDSHVEDTLIAGAGICDRHAVEFVASNARSCVQWLIDQGVLFDTHIQPNGEESYHLTREGGHSHRRILHAADATGREVETTLVSKALNHPNIRVLERSNAVDLIVSDKIGLPGTRRVVGAWVWNRNKETVETCHAKAVVLATGGASKVYQYTTNPDISSGDGIAMAWRAGCRVANLEFNQFHPTALYHPQARNFLLTEALRGEGAYLKRPDGTRFMPDFDERGELAPRDIVARAIDHEMKRLGADCMFLDISHKPADFIRQHFPMIYEKLLGLGIDLTQEPVPIVPAAHYTCGGVMVDDHGRTDVEGLYAIGEVSYTGLHGANRMASNSLLECLVYGWSAAEDITRRMPYAHDISTLPPWDESRVENPDERVVIQHNWHELRLFMWDYVGIVRTTKRLERALRRITMLQQEIDEYYAHFRVSNNLLELRNLVQVAELIVRCAMMRKESRGLHFTLDYPELLTHSGPSILSPGNHYINR
[1]
  total protein half-life in vivo: 4 ± 0.14 h
[2]
  total protein half-life in vivo: 2.44 ± 0.11 h
[3]
  total protein half-life in vivo: 2.28 ± 0.26 h
[4]
  total protein half-life in vivo: 4.14 ± 1.7 h
[5]
  total protein half-life in vivo: 2.39 ± 0.22 h
[6]
  total protein half-life in vivo: 2.68 ± 0.063 h
[7]
  total protein half-life in vivo: 4.41 ± 0.59 h
[8]
  total protein half-life in vivo: 8.41 ± 0.56 h
[9]
  total protein half-life in vivo: 2.58 ± 0.22 h
[10]
  total protein half-life in vivo: 3.51 ± 0.061 h
[11]
  total protein half-life in vivo: 4.69 ± 0.27 h
[12]
  total protein half-life in vivo: 8.21 ± 0.71 h

## MNTLTFLLSTVIELYTMVLLLRIWMQWAHCDFYNPFSQFVVKVTQPIIGPLRRVIPAMGPIDSASLLVAYILSFIKAIVLFKVVTFLPIIWIAGLLILLKTIGLLIFWVLLVMAIMSWVSQGRSPIEYVLIQLADPLLRPIRRLLPAMGGIDFSPMILVLLLYVINMGVAEVLQATGNMLLPGLWMAL
[1]
  total protein half-life in vivo: 6.46 h
[3]
  total protein half-life in vivo: 5.6 h
[4]
  total protein half-life in vivo: 6.12 h
[6]
  total protein half-life in vivo: 2.92 h
[8]
  total protein half-life in vivo: 10.6 h
[11]
  total protein half-life in vivo: 5.07 h
[12]
  total protein half-life in vivo: 8.69 h

## MNTTLFRWPVRVYYEDTDAGGVVYHASYVAFYERARTEMLRHHHFSQQALMAERVAFVVRKMTVEYYAPARLDDMLEIQTEITSMRGTSLVFTQRIVNAENTLLNEAEVLVVCVDPLKMKPRALPKSIVAEFKQ [P0A8Z3]
[1]
  total protein half-life in vivo: 5.87 ± 0.51 h
[2]
  total protein half-life in vivo: 6.54 ± 0.91 h
[3]
  total protein half-life in vivo: 6.41 ± 0.61 h
[4]
  total protein half-life in vivo: 6.27 ± 0.26 h
[5]
  total protein half-life in vivo: 5.7 ± 0.13 h
[7]
  total protein half-life in vivo: 5.99 ± 0.073 h
[8]
  total protein half-life in vivo: 11.1 ± 2.1 h
[9]
  total protein half-life in vivo: 5.28 ± 0.094 h
[10]
  total protein half-life in vivo: 12.3 ± 2.7 h
[11]
  total protein half-life in vivo: 5.68 ± 0.45 h
[12]
  total protein half-life in vivo: 12.63 ± 0.092 h
